According to patent US7432061B2, “Assays for measuring matrix metalloproteinase activities” (BioZyme, Inc., priority 2002, dated 2008):

Experiments:
[1] = target: collagenase 3 (Homo sapiens, UniProt P45452); experiment: Inhibition with type II collagen, FlSub3 cleavage; assay type: biochemical; details: for Average Percent Inhibition from 1.1 to 6.6 Hours / Average Percent Inhibition: COL3(.013 nM)
Protocol: (§1) In a 96 well plate, collagenase 3 (0.013 nM), collagenase 1 (1.25 nM), stromelysin 1 (0.8 nM), gelatinase A (0.025 nM), or gelatinase B (0.008 nM) were reacted with 20 uM FlSub3 in standard assay buffer in the presence of varying concentrations of bovine type II collagen (0.18-44 ug/ml). The type II collagen, a 1 mg/ml stock in 0.5M acetic acid, was transferred into assay buffer by passing the material through a biospin P6 column from Amersham. The reaction was initiated by addition of substrate to enzyme containing either buffer or an appropriate amount of type II collagen. Data points were taken every 15 min over a period of 15 hours using an excitation and emission wavelength of 350 and 485 nm respectively. The usable data (1-6 hours), was taken and the percent inhibition by type II collagen was calculated for each enzyme and plotted as a function of inhibitor concentration and time in the assay. It should be noted that the percent inhibition varies with time as the bovine substrate is consumed during the reaction course.

[2] = target: stromelysin 1 (Homo sapiens, UniProt P08254); experiment: Inhibition with type II collagen, FlSub3 cleavage; assay type: biochemical; details: for Improvement In Selectivity (Strom1 v Col-3): 44 ug/ml Type II Collagen vs no Type II Collagen, FlSb3; for Average Percent Inhibition from 1.1 to 6.6 Hours / Average Percent Inhibition: STR1(.80 nM)
Protocol: as §1

[3] = TypeIICOL(1.6 ug/ul), FISb3, hour 0.10 to 1.10
[4] = TypeIICOL(1.6 ug/ul), FISb3, hour 1.10 to 2.10
[5] = TypeIICOL(1.6 ug/ul), FISb3, hour 1.10 to 6.60
[6] = TypeIICOL(1.6 ug/ul), FISb3, hour 2.10 to 3.10
[7] = TypeIICOL(1.6 ug/ul), FISb3, hour 3.10 to 4.10
[8] = TypeIICOL(1.6 ug/ul), FISb3, hour 4.10 to 5.10
[9] = TypeIICOL(1.6 ug/ul), FISb3, hour 5.10 to 6.10
[10] = TypeIICOL(4.9 ug/ul), FISb3, hour 0.10 to 1.10
[11] = TypeIICOL(4.9 ug/ul), FISb3, hour 1.10 to 2.10
[12] = TypeIICOL(4.9 ug/ul), FISb3, hour 1.10 to 6.60
[13] = TypeIICOL(4.9 ug/ul), FISb3, hour 2.10 to 3.10
[14] = TypeIICOL(4.9 ug/ul), FISb3, hour 3.10 to 4.10
[15] = TypeIICOL(4.9 ug/ul), FISb3, hour 4.10 to 5.10
[16] = TypeIICOL(4.9 ug/ul), FISb3, hour 5.10 to 6.10
[17] = TypeIICOL(15 ug/ul), FISb3, hour 0.10 to 1.10
[18] = TypeIICOL(15 ug/ul), FISb3, hour 1.10 to 2.10
[19] = TypeIICOL(15 ug/ul), FISb3, hour 1.10 to 6.60
[20] = TypeIICOL(15 ug/ul), FISb3, hour 2.10 to 3.10
[21] = TypeIICOL(15 ug/ul), FISb3, hour 3.10 to 4.10
[22] = TypeIICOL(15 ug/ul), FISb3, hour 4.10 to 5.10
[23] = TypeIICOL(15 ug/ul), FISb3, hour 5.10 to 6.10
[24] = TypeIICOL(44 ug/ul), FISb3, hour 0.10 to 1.10
[25] = TypeIICOL(44 ug/ul), FISb3, hour 1.10 to 2.10
[26] = TypeIICOL(44 ug/ul), FISb3, hour 1.10 to 6.60
[27] = TypeIICOL(44 ug/ul), FISb3, hour 2.10 to 3.10
[28] = TypeIICOL(44 ug/ul), FISb3, hour 3.10 to 4.10
[29] = TypeIICOL(44 ug/ul), FISb3, hour 4.10 to 5.10
[30] = TypeIICOL(44 ug/ul), FISb3, hour 5.10 to 6.10
[31] = TypeIICOL(.18 ug/ul), FISb3, hour 0.10 to 1.10
[32] = TypeIICOL(.18 ug/ul), FISb3, hour 1.10 to 2.10
[33] = TypeIICOL(.18 ug/ul), FISb3, hour 1.10 to 6.60
[34] = TypeIICOL(.18 ug/ul), FISb3, hour 2.10 to 3.10
[35] = TypeIICOL(.18 ug/ul), FISb3, hour 3.10 to 4.10
[36] = TypeIICOL(.18 ug/ul), FISb3, hour 4.10 to 5.10
[37] = TypeIICOL(.18 ug/ul), FISb3, hour 5.10 to 6.10

Chain of stromelysin 1 (P08254 100-477): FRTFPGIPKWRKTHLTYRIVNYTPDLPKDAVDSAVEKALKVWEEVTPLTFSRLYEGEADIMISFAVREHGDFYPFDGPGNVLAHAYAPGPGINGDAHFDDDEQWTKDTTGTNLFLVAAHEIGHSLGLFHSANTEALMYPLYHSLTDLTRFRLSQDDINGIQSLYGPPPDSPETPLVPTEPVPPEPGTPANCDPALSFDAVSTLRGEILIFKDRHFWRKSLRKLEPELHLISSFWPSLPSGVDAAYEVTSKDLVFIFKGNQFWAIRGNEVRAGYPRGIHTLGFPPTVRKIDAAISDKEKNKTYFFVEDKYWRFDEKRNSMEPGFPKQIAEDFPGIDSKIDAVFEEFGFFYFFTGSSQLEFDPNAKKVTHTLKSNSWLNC

## Type II Collagen: bovine type II collagen, full length MMP substrate used as inhibitor of gelatinases
[1]; Type II Collagen 0.18 ug/ml
  Average Percent Inhibition from 1.1 to 6.6 Hours: −8%
[1]; Type II Collagen 0.54 ug/ml
  Average Percent Inhibition from 1.1 to 6.6 Hours: −11%
[1]; Type II Collagen 1.63 ug/ml
  Average Percent Inhibition from 1.1 to 6.6 Hours: −11%
[1]; Type II Collagen 4.89 ug/ml
  Average Percent Inhibition from 1.1 to 6.6 Hours: −28%
[1]; Type II Collagen 14.67 ug/ml
  Average Percent Inhibition from 1.1 to 6.6 Hours: −44%
[1]; Type II Collagen 44.00 ug/ml
  Average Percent Inhibition from 1.1 to 6.6 Hours: −53%
[1]; [3]
  Average Percent Inhibition: 16%
[1]; [4]
  Average Percent Inhibition: −4%
[1]; [5]
  Average Percent Inhibition: −11%
[1]; [6]
  Average Percent Inhibition: −15%
[1]; [7]
  Average Percent Inhibition: −13%
[1]; [8]
  Average Percent Inhibition: −12%
[1]; [9]
  Average Percent Inhibition: −11%
[1]; [10]
  Average Percent Inhibition: 8%
[1]; [11]
  Average Percent Inhibition: −31%
[1]; [12]
  Average Percent Inhibition: −28%
[1]; [13]
  Average Percent Inhibition: −38%
[1]; [14]
  Average Percent Inhibition: −31%
[1]; [15]
  Average Percent Inhibition: −25%
[1]; [16]
  Average Percent Inhibition: −21%
[1]; [17]
  Average Percent Inhibition: 6%
[1]; [18]
  Average Percent Inhibition: −48%
[1]; [19]
  Average Percent Inhibition: −44%
[1]; [20]
  Average Percent Inhibition: −59%
[1]; [21]
  Average Percent Inhibition: −50%
[1]; [22]
  Average Percent Inhibition: −41%
[1]; [23]
  Average Percent Inhibition: −34%
[1]; [24]
  Average Percent Inhibition: 2%
[1]; [25]
  Average Percent Inhibition: −55%
[1]; [26]
  Average Percent Inhibition: −53%
[1]; [27]
  Average Percent Inhibition: −71%
[1]; [28]
  Average Percent Inhibition: −60%
[1]; [29]
  Average Percent Inhibition: −49%
[1]; [30]
  Average Percent Inhibition: −41%
[1]; [31]
  Average Percent Inhibition: 6%
[1]; [32]
  Average Percent Inhibition: −9%
[1]; [33]
  Average Percent Inhibition: −8%
[1]; [34]
  Average Percent Inhibition: −10%
[1]; [35]
  Average Percent Inhibition: −8%
[1]; [36]
  Average Percent Inhibition: −7%
[1]; [37]
  Average Percent Inhibition: −6%
[1]; TypeIICOL(.55 ug/ul), FISb3, hour 0.10 to 1.10
  Average Percent Inhibition: 14%
[1]; TypeIICOL(.55 ug/ul), FISb3, hour 1.10 to 2.10
  Average Percent Inhibition: −11%
[1]; TypeIICOL(.55 ug/ul), FISb3, hour 1.10 to 6.60
  Average Percent Inhibition: −11%
[1]; TypeIICOL(.55 ug/ul), FISb3, hour 2.10 to 3.10
  Average Percent Inhibition: −15%
[1]; TypeIICOL(.55 ug/ul), FISb3, hour 3.10 to 4.10
  Average Percent Inhibition: −12%
[1]; TypeIICOL(.55 ug/ul), FISb3, hour 4.10 to 5.10
  Average Percent Inhibition: −10%
[1]; TypeIICOL(.55 ug/ul), FISb3, hour 5.10 to 6.10
  Average Percent Inhibition: −10%
[1]; FlSub3
  inhibition of collagenase 3 by type II collagen: not observed
[1]; highest concentration of collagen, FlSb3
  increase in specificity of collagenase 3 (factor): 2.5
[1]; highest concentrations, FlSub3
  effect on collagenase 3 at the highest concentrations of type II collagen: activation, rather than inhibition
[2]
  Improvement In Selectivity (Strom1 v Col-3): 2.5 fold
[2]; listed as collagen
  Improvement In Selectivity (Strom1 v Col-3): four
[2]; Type II Collagen 0.18 ug/ml
  Average Percent Inhibition from 1.1 to 6.6 Hours: 15%
[2]; Type II Collagen 0.54 ug/ml
  Average Percent Inhibition from 1.1 to 6.6 Hours: 13%
[2]; Type II Collagen 1.63 ug/ml
  Average Percent Inhibition from 1.1 to 6.6 Hours: 19%
[2]; Type II Collagen 4.89 ug/ml
  Average Percent Inhibition from 1.1 to 6.6 Hours: 12%
[2]; Type II Collagen 14.67 ug/ml
  Average Percent Inhibition from 1.1 to 6.6 Hours: 18%
[2]; Type II Collagen 44.00 ug/ml
  Average Percent Inhibition from 1.1 to 6.6 Hours: 19%
[2]; [3]
  Average Percent Inhibition: −10%
[2]; [4]
  Average Percent Inhibition: 24%
[2]; [5]
  Average Percent Inhibition: 19%
[2]; [6]
  Average Percent Inhibition: 22%
[2]; [7]
  Average Percent Inhibition: 18%
[2]; [8]
  Average Percent Inhibition: 17%
[2]; [9]
  Average Percent Inhibition: 16%
[2]; [10]
  Average Percent Inhibition: 50%
[2]; [11]
  Average Percent Inhibition: 23%
[2]; [12]
  Average Percent Inhibition: 12%
[2]; [13]
  Average Percent Inhibition: 11%
[2]; [14]
  Average Percent Inhibition: 8%
[2]; [15]
  Average Percent Inhibition: 8%
[2]; [16]
  Average Percent Inhibition: 8%
[2]; [17]
  Average Percent Inhibition: 57%
[2]; [18]
  Average Percent Inhibition: 28%
[2]; [19]
  Average Percent Inhibition: 18%
[2]; [20]
  Average Percent Inhibition: 18%
[2]; [21]
  Average Percent Inhibition: 14%
[2]; [22]
  Average Percent Inhibition: 13%
[2]; [23]
  Average Percent Inhibition: 14%
[2]; [24]
  Average Percent Inhibition: 62%
[2]; [25]
  Average Percent Inhibition: 32%
[2]; [26]
  Average Percent Inhibition: 19%
[2]; [27]
  Average Percent Inhibition: 18%
[2]; [28]
  Average Percent Inhibition: 14%
[2]; [29]
  Average Percent Inhibition: 14%
[2]; [30]
  Average Percent Inhibition: 14%
[2]; [31]
  Average Percent Inhibition: 22%
[2]; [32]
  Average Percent Inhibition: 22%
[2]; [33]
  Average Percent Inhibition: 15%
[2]; [34]
  Average Percent Inhibition: 15%
[2]; [35]
  Average Percent Inhibition: 12%
[2]; [36]
  Average Percent Inhibition: 12%
[2]; [37]
  Average Percent Inhibition: 12%
[2]; TypeIICOL(.55 ug/ul), FLSb3, hour 0.10 to 1.10
  Average Percent Inhibition: 43%
[2]; TypeIICOL(.55 ug/ul), FLSb3, hour 1.10 to 2.10
  Average Percent Inhibition: 26%
[2]; TypeIICOL(.55 ug/ul), FLSb3, hour 1.10 to 6.60
  Average Percent Inhibition: 13%
[2]; TypeIICOL(.55 ug/ul), FLSb3, hour 2.10 to 3.10
  Average Percent Inhibition: 14%
[2]; TypeIICOL(.55 ug/ul), FLSb3, hour 3.10 to 4.10
  Average Percent Inhibition: 10%
[2]; TypeIICOL(.55 ug/ul), FLSb3, hour 4.10 to 5.10
  Average Percent Inhibition: 8%
[2]; TypeIICOL(.55 ug/ul), FLSb3, hour 5.10 to 6.10
  Average Percent Inhibition: 8%
